Data as given in patent US20200239579A1.
Read-outs that look alike come from different tables or passages of the source.

Tests used:
[1] = molecular target: human PD-L1 (full length, on cells) (human), Q9NZQ7; assay: flow cytometry on PC3 cells, PE anti-human IgG secondary, MFI (PE)
[2] = molecular target: human PD-L1 (full length, on cells) (human), Q9NZQ7
[3] = molecular target: human PD-L1 (full length, on cells) (human), Q9NZQ7; assay: flow cytometry on MDA-MB-231 cells, PE anti-human IgG secondary, MFI (PE)
[4] = molecular target: human PD-L1 (full length, on cells) (human), Q9NZQ7; assay: flow cytometry on SK-MES-1 cells, PE anti-human IgG secondary, MFI (PE)
[5] = molecular target: cynomolgus monkey PD-L1 (full length, on CHO cells) (cynomolgus monkey (Macaca fascicularis)), G7PSE7; assay: flow cytometry on CHO cells transfected with cynomolgus PD-L1, PE anti-human IgG secondary, MFI (PE)
Chain of cynomolgus monkey PD-L1 (full length, on CHO cells) (cynomolgus monkey (Macaca fascicularis)), G7PSE7 (G7PSE7 entry or part of it): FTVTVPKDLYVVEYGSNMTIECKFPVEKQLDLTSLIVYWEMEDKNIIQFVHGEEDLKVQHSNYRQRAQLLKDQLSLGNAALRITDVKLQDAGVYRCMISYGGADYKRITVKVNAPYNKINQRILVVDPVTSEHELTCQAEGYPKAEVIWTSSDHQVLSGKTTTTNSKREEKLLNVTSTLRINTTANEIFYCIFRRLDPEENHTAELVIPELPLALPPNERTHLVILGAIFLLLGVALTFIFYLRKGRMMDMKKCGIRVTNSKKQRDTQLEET

Chain of human PD-L1 (full length, on cells) (human), Q9NZQ7 (Q9NZQ7 19-290 limits assumed): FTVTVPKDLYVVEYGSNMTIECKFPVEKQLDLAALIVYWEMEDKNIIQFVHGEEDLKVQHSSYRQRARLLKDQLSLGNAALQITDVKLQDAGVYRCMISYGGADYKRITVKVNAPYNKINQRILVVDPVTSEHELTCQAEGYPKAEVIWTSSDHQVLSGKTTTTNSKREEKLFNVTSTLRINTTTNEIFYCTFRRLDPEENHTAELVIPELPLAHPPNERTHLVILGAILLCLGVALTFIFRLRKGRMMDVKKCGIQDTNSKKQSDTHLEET

B1: bsIgG1-b12-FEAL×547-FEAR (bispecific antibody, not shown: another chain or arm of the molecule)
heavy: EVQLLEPGGGLVQPGGSLRLSCEASGSTFSTYAMSWVRQAPGKGLEWVSGFSGSGGFTFYADSVRGRFTISRDSSKNTLFLQMSSLRAEDTAVYYCAIPARGYNYGSFQHWGQGTLVTVSSASTKGPSVFPLAPSSKSTSGGTAALGCLVKDYFPEPVTVSWNSGALTSGVHTFPAVLQSSGLYSLSSVVTVPSSSLGTQTYICNVNHKPSNTKVDKRVEPKSCDKTHTCPPCPAPEFEGGPSVFLFPPKPKDTLMISRTPEVTCVVVAVSHEDPEVKFNWYVDGVEVHNAKTKPREEQYNSTYRVVSVLTVLHQDWLNGKEYKCKVSNKALPAPIEKTISKAKGQPREPQVYTLPPSREEMTKNQVSLTCLVKGFYPSDIAVEWESNGQPENNYKTTPPVLDSDGSFFLYSRLTVDKSRWQQGNVFSCSVMHEALHNHYTQKSLSLSPGK
light: SYVLTQPPSVSVAPGQTARITCGGNNIGSKSVHWYQQKPGQAPVLVVYDDNDRPSGLPERFSGSNSGNTATLTISRVEAGDEADYYCQVWDSSSDHVVFGGGTKLTVLGQPKAAPSVTLFPPSSEELQANKATLVCLISDFYPGAVTVAWKADSSPVKAGVETTTPSKQSNNKYAASSYLSLTPEQWKSHRSYSCQVTHEGSTVEKTVAPTECS
modifications: not checked
EC50 (read off the curve) [1]: 0.05 µg/mL
EC50 (read off the curve) [2]: 0.1 µg/mL
EC50 (read off the curve) [3]: 0.06 µg/mL
EC50 (read off the curve) [4]: 0.2 µg/mL
EC50 (read off the curve) [5]: 0.2 µg/mL
